Measured values reported in patent US20080292704A1 (published 2008).

Assays:
HSA1Fc = biological target: T1, HSA1Fc (human, UniProt P02768 25-221); test: ELISA on coated recombinant receptor, Protein G-HRPO detection
T1 construct: range 1-197; also called Fc fusion protein; Ig fusion protein

HSA1R4 [1] = biological target: T2, HSA1R4 (human, UniProt P02768 25-221); test: ELISA on coated recombinant receptor (4 µg/mL), HRPO-Protein G detection
T2 construct: range 1-197; also called R4 ligand; HCH2 polymer
T2 sequence (P02768 other isoform, or with tags, fused parts or gaps): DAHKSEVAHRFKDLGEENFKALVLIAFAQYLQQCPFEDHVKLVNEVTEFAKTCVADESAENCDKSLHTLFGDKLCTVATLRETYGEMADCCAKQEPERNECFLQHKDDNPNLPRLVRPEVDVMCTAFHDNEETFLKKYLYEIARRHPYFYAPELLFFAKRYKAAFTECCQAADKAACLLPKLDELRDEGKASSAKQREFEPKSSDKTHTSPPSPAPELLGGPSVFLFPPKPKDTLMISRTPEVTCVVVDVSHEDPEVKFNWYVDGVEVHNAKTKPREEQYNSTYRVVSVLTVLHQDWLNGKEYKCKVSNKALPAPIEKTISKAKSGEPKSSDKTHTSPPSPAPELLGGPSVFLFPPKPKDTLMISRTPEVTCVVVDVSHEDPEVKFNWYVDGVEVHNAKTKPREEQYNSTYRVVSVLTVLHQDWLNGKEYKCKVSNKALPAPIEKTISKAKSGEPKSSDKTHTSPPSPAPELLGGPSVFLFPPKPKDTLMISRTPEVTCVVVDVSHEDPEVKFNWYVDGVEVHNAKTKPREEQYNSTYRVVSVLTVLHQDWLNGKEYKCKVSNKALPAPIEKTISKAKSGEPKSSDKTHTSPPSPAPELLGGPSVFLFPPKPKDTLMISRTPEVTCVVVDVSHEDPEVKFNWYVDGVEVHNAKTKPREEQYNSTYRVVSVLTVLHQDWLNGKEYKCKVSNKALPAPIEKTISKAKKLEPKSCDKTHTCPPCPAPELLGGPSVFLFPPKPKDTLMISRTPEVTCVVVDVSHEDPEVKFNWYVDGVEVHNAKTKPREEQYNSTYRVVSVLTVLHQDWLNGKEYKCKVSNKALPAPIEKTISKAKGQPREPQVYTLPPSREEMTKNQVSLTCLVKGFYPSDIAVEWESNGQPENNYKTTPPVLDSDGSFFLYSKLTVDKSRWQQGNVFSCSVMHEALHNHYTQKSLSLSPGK

HSA1R4 [2] = biological target: T2, HSA1R4; test: ELISA on coated recombinant receptor (2 µg/mL), HRPO-Protein G detection

T1 sequence (P02768 other isoform, or with tags, fused parts or gaps): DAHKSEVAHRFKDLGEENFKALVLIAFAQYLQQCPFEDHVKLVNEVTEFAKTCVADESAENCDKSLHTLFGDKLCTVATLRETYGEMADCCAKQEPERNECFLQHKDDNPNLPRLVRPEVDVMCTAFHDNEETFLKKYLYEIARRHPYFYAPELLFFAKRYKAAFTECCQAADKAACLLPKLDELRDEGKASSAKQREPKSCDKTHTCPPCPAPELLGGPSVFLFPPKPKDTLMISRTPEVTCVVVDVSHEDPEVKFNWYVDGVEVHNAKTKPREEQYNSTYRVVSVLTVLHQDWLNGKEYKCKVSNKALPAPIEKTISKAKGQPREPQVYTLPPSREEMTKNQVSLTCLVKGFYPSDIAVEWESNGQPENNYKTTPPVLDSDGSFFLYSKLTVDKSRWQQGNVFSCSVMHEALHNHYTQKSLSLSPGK

Row | Binder | binding result (HSA1Fc) | binding result (HSA1R4 [1]) | binding result (HSA1R4 [2])
1 | recombinant FcγRIIb ligand binding domain, 6xHis tagged (receptor) TPAAPPKAVLKLEPQWINVLQEDSVTLTCRGTHSPESDSIQWFHNGNLIPTHTQPSYRFKANNNDSGEYTCQTGQTSLSDPVHLTVLSEWLVLQTPHLEFQEGETIVLRCHSWKDKPLVKVTFFQNGKSKKFSRSDPNFSIPQANHSHSGDYHCTGNIGYTLYSSKPVTITVQAP | no binding (tested: 20 ug/mL (highest concentration tested)) | binds | 
2 | recombinant FcγRIIa ligand binding domain, 6xHis tagged (receptor) QAAAPPKAVLKLEPPWINVLQEDSVTLTCQGARSPESDSIQWFHNGNLIPTHTQPSYRFKANNNDSGEYTCQTGQTSLSDPVHLTVLSEWLVLQTPHLEFQEGETIMLRCHSWKDKPLVKVTFFQNGKSQKFSHLDPTFSIPQANHSHSGDYHCTGNIGYTLFSSKPVTITVQVPSMGSSSPMG | no binding (tested: 20 ug/mL (highest concentration tested)) |  | 
3 | recombinant FcγRI ligand binding domain, 6xHis tagged (receptor) QVDTTKAVITLQPPWVSVFQEETVTLHCEVLHLPGSSSTQWFLNGTATQTSTPSYRITSASVNDSGEYRCQRGLSGRSDPIQLEIHRGWLLLQVSSRVFTEGEPLALRCHAWKDKLVYNVLYYRNGKAFKFFHWNSNLTILKTNISHNGTYHCSGMGKHRYTSAGISVTVKELFPAPVLNASVTSPLLEGNLVTLSCETKLLLQRPGLQLYFSFYMGSKTLRGRNTSSEYQILTARREDSGLYWCEAATEDGNVLKRSPELELQVLGLQLPTPVWFH | binds |  | binds
